Laboratory results from the supplement of paper PMC12855868.

B1: library; numbered along this chain (parent)
chain: MAAAGGARLLRAASAVLGGPAGRWLHHAGSRAGSSGLLRNRGPGGSAEASRSLSVSARARSSSEDKITVHFINRDGETLTTKGKVGDSLLDVVVENNLDIDGFGACEGTLACSTCHLIFEDHIYEKLDAITDEENDMLDLAYGLTDRSRLGCQICLTKSMDNMTVRVPETVADARQSIDVGKTS

Variants of: B1
Experiment: scaled log2 fold change in cell abundance, elesclomol vs control (0 = silent mean, 1 = nonsense mean) (scaled log2 ratio); higher = higher viability under elesclomol (loss of FDX1 cuproptosis function)
Conditions: glucose 10 mM
Procedure: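 Deep mutational scan of full-length human FDX1: a pooled saturation-mutagenesis ORF library (every residue 2-184 mutated to all 19 amino acids plus stop, and silent codons where available) was expressed by lentivirus in FDX1-knockout ABC1 (14 days) or HEK293T (11 days) cells grown with elesclomol (ES) or DMSO control. Variant abundance came from ORF sequencing. The log2 fold change (ES vs control, mean of duplicates) was centred on the silent-variant mean (0) and scaled to the nonsense-variant mean (1). Higher values mean greater viability under ES, i.e. loss of FDX1 function in cuproptosis.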

[1] = with ABC1 FDX1 KO, elesclomol 5 nM, 14 days
[2] = with HEK293T FDX1 KO, elesclomol 40 nM, 11 days
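Note: variant abundance is its share of total variant reads in each endpoint sample, from next-generation sequencing of the integrated ORF PCR-amplified out of genomic DNA.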

Variant | scaled log2 fold change [1] | scaled log2 fold change [2]
G102V | 0.298 | -0.174
G102N | -0.336 | 0.807
G102K | 0.473 | -0.277
G102R | 0.164 | -1.7
G102A | 0.0393 | -0.812
G102Y | 0.333 | -0.0235
G102L | 0.0952 | -0.752
G102S | 0.293 | 0.861
G102P | 0.0181 | -0.00988
G102H | 0.0379 | 0.869
G102W | 0.225 | 0.879
G102I | 0.0866 | 0.0202
G102D | -0.0623 | -0.526
G102F | -0.00949 | -0.289
G102T | -0.0667 | 2.33
G102E | 0.427 | -0.163
G102M | -0.196 | -0.665
G102C | 0.0125 | 0.0278
G102Q | -0.0113 | 0.76
N97K | 0.149 | 0.739

Variant | scaled log2 fold change [1] | scaled log2 fold change [2]
N97L | -0.931 | –
N97D | 0.0523 | -0.622
N97Q | -0.273 | 0.204
N97H | -0.355 | -0.619
N97F | 0.103 | -0.943
N97M | 0.195 | -0.11
N97T | -0.0494 | 0.415
N97A | 0.142 | 0.975
N97R | -0.00904 | –
N97W | 0.133 | -0.218
N97I | 0.125 | -0.93
N97C | -0.382 | -0.308
N97E | -0.211 | -1.28
N97G | 0.132 | -0.242
N97Y | -0.364 | -0.135
N97P | -0.344 | -0.674
N97V | -0.176 | -0.221
N97S | -0.104 | 0.254
G104I | 0.933 | 1.53
G104K | 0.879 | 0.468

Variant | scaled log2 fold change [1] | scaled log2 fold change [2]
G104D | 1.12 | 0.43
G104Y | 0.933 | 1.09
G104C | 0.959 | 1.19
G104T | 0.997 | 1.59
G104S | 0.931 | 0.363
G104P | 1.02 | 0.598
G104N | 0.899 | 1.47
G104L | 1.03 | 0.779
G104Q | 1.05 | 0.891
G104E | 1.19 | 0.941
G104A | 0.243 | -1.55
G104H | 0.989 | 0.725
G104W | 0.96 | 0.69
G104F | 0.647 | 0.268
G104R | 0.848 | 0.682
G104V | 0.949 | 1.02
G104M | 0.794 | 0.449
A105H | -1.17 | -0.265
